Test [1] has as its target CSP-NPNA5.5-10x-1210 Fab. Briefly: ITC. A general note: ITC needs no label: the signal is the heat of the interaction.
In test [2] the target is CSP-NPNA5.5-8x-1210 Fab. Description: ITC.
The target of test [3] is CSP-NPNA5.5-10x-1210 Fab. Description: ITC. This is another data set of the same source.
For test [4], the target named is CSP-NPNA5.5-12x-1210 Fab. Briefly: ITC.
The target in test [5] is CSP-NPNA5.5-8x-1210 Fab. Description: ITC. The source holds these as a separate data set.
The target in test [6] is CSP-NPNA5.5-12x-1210 Fab. Description: ITC. The source holds these as a separate data set.
Test [7] concerns the target full length PfCSP (NF54 strain) (Plasmodium falciparum (NF54 strain), UniProt P19597 20-384). Briefly: BLI; avid. In general terms: Biolayer interferometry detects binding as a change in optical thickness at a sensor tip.

The Kd is the equilibrium constant for the complex coming apart. High values mean a looser complex, low ones a tighter complex.

Chain of full length PfCSP (NF54 strain) (P19597 20-384): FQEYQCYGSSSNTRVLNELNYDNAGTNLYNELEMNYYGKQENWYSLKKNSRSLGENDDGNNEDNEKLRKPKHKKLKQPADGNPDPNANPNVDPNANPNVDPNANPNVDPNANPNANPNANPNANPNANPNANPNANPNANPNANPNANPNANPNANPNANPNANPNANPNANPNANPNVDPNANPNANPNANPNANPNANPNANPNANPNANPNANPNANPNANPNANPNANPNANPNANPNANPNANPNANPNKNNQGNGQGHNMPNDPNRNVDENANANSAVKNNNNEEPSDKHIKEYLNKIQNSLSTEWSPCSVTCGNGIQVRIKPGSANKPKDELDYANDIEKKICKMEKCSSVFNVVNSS

B1: 1210 Fab (Fab, V domains shown)
VH: QVQLVESGGGVVQPGRSLRLSCAASGFTFSNYGMHWVRQAPGKGLEWVAVIWYDGSKKYYADSVKGRFTISRDNSKNTLYLQMNSLRAEDTAVYYCARVRDSSDYYGDAFDIWGQGTMVTVSS
VL: DIQMTQSPSTLSASVGDRVTITCRASQSISSWLAWYQQKPGKAPKLLIYKASNLESGVPLRFSGSGSGTEFTLTISSLQPDDFATYYCQQYNNYWTFGQGTKVEIK
As to B1, the Ka with CSP-NPNA5.5-10x-1210 Fab [1] worked out at 2.19e+06 M⁻¹; in the test with CSP-NPNA5.5-8x-1210 Fab [5], 3e+06 M⁻¹; in the test with CSP-NPNA5.5-12x-1210 Fab [6] it was 5.73e+06 M⁻¹. In addition, the Kd amounted to 333 nM with CSP-NPNA5.5-8x-1210 Fab [2], 456 nM in the test with CSP-NPNA5.5-10x-1210 Fab [3] and 174 nM in the test with CSP-NPNA5.5-12x-1210 Fab [4].

B2: antibody 1210 (IgG) (antibody, V domains shown)
VH: QVQLVESGGGVVQPGRSLRLSCAASGFTFSNYGMHWVRQAPGKGLEWVAVIWYDGSKKYYADSVKGRFTISRDNSKNTLYLQMNSLRAEDTAVYYCARVRDSSDYYGDAFDIWGQGTMVTVSS
VL: DIQMTQSPSTLSASVGDRVTITCRASQSISSWLAWYQQKPGKAPKLLIYKASNLESGVPLRFSGSGSGTEFTLTISSLQPDDFATYYCQQYNNYWTFGQGTKVEIK
In test [7], B2 gave a Kd of less than 0.001 nM.

B3: 1210_YY IgG (antibody, V domains shown)
VH: QVQLVESGGGVVQPGRSLRLSCAASGFTFSNYGMHWVRQAPGKGLEWVAVIWYDGSKKYYADSVKGRFTISRDNSKNTLYLQMNSLRAEDTAVYYCARVRDSSYYYGDAFDIWGQGTMVTVSS
VL: DIQMTQSPSTLSASVGDRVTITCRASQSISSWLAWYQQKPGKAPKLLIYKASNLESGVPLRFSGSGSGTEFTLTISSLQPDDFATYYCQQYYNYWTFGQGTKVEIK
In turn, B3 registered a Kd in test [7] of 0.66 nM.

The values are drawn from patent publication US12214052 (dated 2025).
